The nature of this series: yeast display, Sf9 membrane polyspecificity reagent, FACS + sequencing; frameworks hold sequencing errors. The essentials: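 Sorting gates, low and high (top ~1%), were placed on anti-HA fluorescence to track expression and on streptavidin fluorescence to track reagent binding. A clone's polyreactivity label is taken from the gate it came out of. The reagent was 10% biotinylated, detergent-solubilized Sf9 membrane, applied for 1 hour at 4 °C to galactose-induced yeast display cells.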
Consider “QVQLVESGGGLVQAGGSLRLSCAASGSTFTYYAMGWYSQAPGKERELVARIRASGGSTYYADSVKGRFTISRDTAKNTDYLQMNSLKPEDTAVYYCAAQLYFLYRTYDYWGQGTQVTVSS”, for which the “polyreactivity (PSR sort gate)” value is recorded as “high polyreactivity”.

Take “QVQLVESGGGLVQAGGSLRLSCAASGSTFTYYSMGWDRQAPGKERELVAAISSNGGSTSYADSVKGRFTISRDNAKNTVYLQMNSLKPEDTAVYYCAAQVPLFGRYYWGQGTQVTVSS”: the “polyreactivity (PSR sort gate)” value is on record as “high polyreactivity”.

Take “QVQLVESGGGLVQAGGSLRLSCAASGSTFVAYVMGWYRQAPGKERELVASITSGGITNYADSVKGRFTISRDNAKNTVYLQMNSLKPEDTAVKGDYWGQGTQVTVSS”: the “polyreactivity (PSR sort gate)” value was “low polyreactivity”.

Regarding “QVQLVESGGGLVQAGGSLRLSCAASGSTFVDNAMGWYRQAPGKEREFVAAIDWSGGSTFYADSVKGRFTISRDNAKNTVYLQMNSLKPEDTAVYYCAAYPQAYIADYDYWGQGTQVTVSS”, the “polyreactivity (PSR sort gate)” value is “low polyreactivity”.

For “QVQLVESGGGLVQAGGSLRLSCAASGSTFVDYAMGWYRQAPGKERELVAGITSGGSTNYADSVKGRFTISRDNAKNTVYLQMNSLKPEDTAVYYCNADPGQDTPGGISDEWYSVWLEYDYWGQGTQVTVSS”, the “polyreactivity (PSR sort gate)” value was “low polyreactivity”.

As to “QVQLVESGGGLVQAGGSLRLSCAASGSTFVENAMGWYRQAPGKERELVAAITSSGGSTYYADSVKGRFSNSRDNAMNTVYLQMNSLKPEDTSVDYCGVDYIYDDAYNYWGQGTQVTVSS”, the “polyreactivity (PSR sort gate)” value is “high polyreactivity”.

In the case of “QVQLVESGGGLVQAGGSLRLSCAASGSTFVFYAMGWYRQAPGKERELVAAITISGDITYYADSVKGRFTISRDNAKNTVYLQMNSLKPEDTAVYYCAADWHSWRWGYYYWGQGTQVTVSS”, the “polyreactivity (PSR sort gate)” value was “low polyreactivity”.

With “QVQLVESGGGLVQAGGSLRLSCAASGSTFVFYAMGWYRQAPGKERELVADITSGGRTSYADSVKGRFTISRDNAKNTVYLQLNSLKPEDTAVYYSAALTRWYAWYDYWGQGTQVTVSS”, the “polyreactivity (PSR sort gate)” value is “high polyreactivity”.

As to “QVQLVESGGGLVQAGGSLRLSCAASGSTFVFYTMGWYRQAPGKEREFVASISGSGGSTYYADSVKGRFTISRDNAKNTVYLQMNSLKPEDTAVYYCAAGYPYYYWTPYYYWVQGTQVTVSS”, the “polyreactivity (PSR sort gate)” value is “high polyreactivity”.

As for “QVQLVESGGGLVQAGGSLRLSCAASGSTFVGKVMGWYRQAPGKERELVAAISRGGSTYYADSVKGRFTISRDNAKNTVYLQMNSLKPEDTAVYYCAADVRPWGNYHAQYDYWGQGTQVTVSS”, the “polyreactivity (PSR sort gate)” value is listed as “low polyreactivity”.

“QVQLVESGGGLVQAGGSLRLSCAASGSTFVGNAMGWSRQAPGKERELVAAITSGGSTNYADSVKGRFTISRDNAKNTVYLQMNSLKPEDTAVYYCAKRVSGSPPTGGSLSDSWGQGTQVTVSS”: the “polyreactivity (PSR sort gate)” value is listed as “high polyreactivity”.

Consider “QVQLVESGGGLVQAGGSLRLSCAASGSTFVGNAMGWYRQAPGKERELVAAITGGGGSTYYADSVKGRFTISRDNAKNSVYLQMNSLKPEDTAVDYCARDRTDYYVWYVRYYYWGQGTQVTVSS”, for which the “polyreactivity (PSR sort gate)” value was “low polyreactivity”.

Take “QVQLVESGGGLVQAGGSLRLSCAASGSTFVGNAMGWYRQAPGKERELVAAITGGGGSTYYADSVKGRFTISRDNAKNTVYLQMNSLKPEDTAVYYCNKKLQRRSWYDYWGQGTQVTVSS”: the “polyreactivity (PSR sort gate)” value is reported as “low polyreactivity”.

Regarding “QVQLVESGGGLVQAGGSLRLSCAASGSTFVGNAMGWYRQEPGKERELVATISNSGGRTYYADSVKGRLTISRDNAKYTVYLQMNSLKPEDTAVYYCAADHPDFGPGYSFDYWGQGTQVTVSS”, the “polyreactivity (PSR sort gate)” value is “low polyreactivity”.

For the sequence “QVQLVESGGGLVQAGGSLRLSCAASGSTFVGYAMGWYRPAPGKERELVAAITIRGGSTYYADSVKGRFTISRDNAKNNVYLQMNSLKPEDTAVYYCAADYWYGGFEYWGQGTQVTVSS”, the “polyreactivity (PSR sort gate)” value is “low polyreactivity”.

In the case of “QVQLVESGGGLVQAGGSLRLSCAASGSTFVGYAMGWYRQAPGKERELDAALSANVGGTYYADSVKGRFTISRDNAKNTVYLQMNSLKPEVTAVYYCAADYAYNYFWRPGDYWGQGTQVTVSS”, the “polyreactivity (PSR sort gate)” value is “low polyreactivity”.

In the case of “QVQLVESGGGLVQAGGSLRLSCAASGSTFVGYAMGWYRQAPGKERELVAAISKSGGRTYYADSVKGRFTISRDNAKNTVYLQMNSLKPEDTAVYYCAAYFTRYDFRWHTYYYWGQGTQVTVSS”, the “polyreactivity (PSR sort gate)” value is recorded as “low polyreactivity”.

As to “QVQLVESGGGLVQAGGSLRLSCAASGSTFVGYAMGWYRQAPGKERELVAAISRTGASTYYADSVKGRFTISRDNAKNTVYLQMNSLKPADTAVYYCAYYYSIYDYWGQGTQVTVSS”, the “polyreactivity (PSR sort gate)” value is “high polyreactivity”.

Turning to “QVQLVESGGGLVQAGGSLRLSCAASGSTFVGYAMGWYRQAPGKERELVAAISYSGGSTYYADSVKGRFTISRDNAKNTVYLQMNSLKPEDTAVYYCAAEWSRHYYYGPRYDYWGQGTQVTVSS”, the “polyreactivity (PSR sort gate)” value is “low polyreactivity”.

Turning to “QVQLVESGGGLVQAGGSLRLSCAASGSTFVHNAMGWYRQAPGKERELVARISFRSGRTYYADSVKGRFTISRDNAKNTVYLQMNSLKAEDTAVYYCNAVLYGQYKYDYWGQGTQVTVSS”, the “polyreactivity (PSR sort gate)” value is reported as “high polyreactivity”.

Regarding “QVQLVESGGGLVQAGGSLRLSCAASGSTFVIKAMGWYRQAPGKERELVAAITSGGDTNYADSVKGRFTISRDNSKYTVYLQMNSLKPEDTALYYCNARDGGQGNYSARYDYWGHGTQVTVSS”, the “polyreactivity (PSR sort gate)” value was “low polyreactivity”.

Consider “QVQLVESGGGLVQAGGSLRLSCAASGSTFVINAMGWYRPAPGKERELVARISSSGGRTDYADSVKGRFTISRDNAKNTVYLQMNSLKPEDTAVYYCAAATWLIPYTWRDPSQYNYWAQGTQVTVSS”, for which the “polyreactivity (PSR sort gate)” value is recorded as “low polyreactivity”.

Regarding “QVQLVESGGGLVQAGGSLRLSCAASGSTFVIYDMGWYRQAPGKERELVAAISYSGGSTYYADSVKGRFTISRDNAKNTVYLQMNSLKPEDTAVYYCAAEGRSDWGGDDYYWGQGTQVTVSS”, the “polyreactivity (PSR sort gate)” value is listed as “low polyreactivity”.

Regarding “QVQLVESGGGLVQAGGSLRLSCAASGSTFVIYGMGWYRQAPGKERELVADITWIGGSTYYADSVKGRFTISRDNAKNTVYLQMNSLKPEDTAVYYCNADVRYGRDHWGQGTQVTVSS”, the “polyreactivity (PSR sort gate)” value was “low polyreactivity”.

As for “QVQLVESGGGLVQAGGSLRLSCAASGSTFVKNTMGWYRQAPGKERELVAAISSRGGSTYYADSVKGRFTISRDNAKNTVYLQMNSLKPEDTAVYYCNALGLYSRYQQGEYDYWGQGTQVTVSS”, the “polyreactivity (PSR sort gate)” value is “low polyreactivity”.

“QVQLVESGGGLVQAGGSLRLSCAASGSTFVKYAMGWYRQAPGKERELVAAITASGGRTYYADSVKGRFTISRDNAKNTVYLQMISLKPEDTAVYYCNARGYHYGTLFDYWGQGTQVTVSS”: the “polyreactivity (PSR sort gate)” value is recorded as “high polyreactivity”.

In the case of “QVQLVESGGGLVQAGGSLRLSCAASGSTFVKYAMGWYRQAPGKERELVATITRRGGNTYYADSVKGRFTISRDNAKYTVYLQMNSLKPEDTAVYYCAKYSRTKAFEYWGQGTQVTVSS”, the “polyreactivity (PSR sort gate)” value was “high polyreactivity”.

As to “QVQLVESGGGLVQAGGSLRLSCAASGSTFVKYAMGWYRQAPGKERELVATITYSSGSTSYADSVKGRFTISRDNAKNTVYLQMNSLKPEDTAVYYCAKKDYTGYGYWGQGTQVTVSS”, the “polyreactivity (PSR sort gate)” value is “low polyreactivity”.

On to “QVQLVESGGGLVQAGGSLRLSCAASGSTFVLDDMGWYRQAPGKERELDAAISYSGDSTNYAASVKGRFTISRDNAKNTVYLQMNSLKPEDTAVYYCNARQRTYYRTHRIRHKGNGYWGQGTQVTVSS”, for which the “polyreactivity (PSR sort gate)” value is listed as “low polyreactivity”.

In the case of “QVQLVESGGGLVQAGGSLRLSCAASGSTFVNYAMGWYRQAPGKERELVAAISSTGGSTYYADSVKGRFTISRDNAKNTVYLQMNSLKPEDTAVYYCAAYRYFKMGYWGQGTQVTVSS”, the “polyreactivity (PSR sort gate)” value is “high polyreactivity”.

“QVQLVESGGGLVQAGGSLRLSCAASGSTFVPNAMGWYRQAPGKERELVAAITSGGITNYADSVQGRFTISRDNAKNTVYLQMNSLKPEDTAVYYCAVLYYILAPGYDYWGQGTQVTVSS”: the “polyreactivity (PSR sort gate)” value is reported as “low polyreactivity”.

On to “QVQLVESGGGLVQAGGSLRLSCAASGSTFVPNTMGWYRQAPGKDRELVAGITSGGSTYYADSVKGRFTISRDNAKNTVYLQMNSLKPEDTAVYYCAAGKHVTFSYEYRMDYWGQGSQVTVSS”, for which the “polyreactivity (PSR sort gate)” value is on record as “low polyreactivity”.

On to “QVQLVESGGGLVQAGGSLRLSCAASGSTFVPYAMGWYRQAPGKERELVARISRRGGSSTYYADSVKGRFTISRDNAKNTVYLQMNSLKPEDTAVYYCNKGHITFASVSSGPSPGGYWGQGTQVTVSS”, for which the “polyreactivity (PSR sort gate)” value is recorded as “low polyreactivity”.

Take “QVQLVESGGGLVQAGGSLRLSCAASGSTFVPYAMGWYRQAPGKERELVASISWRGGSTSYADSVKGRFTISRDNAKNTVYLQMNSLKPEDTAVYYCAKRRYWAPYDYWGQGTQVTVSS”: the “polyreactivity (PSR sort gate)” value was “high polyreactivity”.

With “QVQLVESGGGLVQAGGSLRLSCAASGSTFVQNAMGWYRQAPGKERELVAAISKSGGRTYYADSVKGRFTISRDNEKNTVYLQINSLNAEDTAVYYCARPYSRAYDYWGQGTQVTVSS”, the “polyreactivity (PSR sort gate)” value was “high polyreactivity”.

Take “QVQLVESGGGLVQAGGSLRLSCAASGSTFVQNAMGWYRQAPGKERELVAAISLRGGSTYYADSVKGRFTISRDNAKNTVYLQMNSLKPEDTAVYYCAADVSQRDGSVRGYDSWGQDTQVTVSS”: the “polyreactivity (PSR sort gate)” value is listed as “high polyreactivity”.

For the sequence “QVQLVESGGGLVQAGGSLRLSCAASGSTFVRNAMGWYRQAPGKERELVAGISTGDNTYYADSVKGRFTISRDNAKNTVYLQMNSLKPEDSAVYYCAARGLPSNYYYYVHGYIMDYWGQGTQVTVSS”, the “polyreactivity (PSR sort gate)” value was “low polyreactivity”.

As for “QVQLVESGGGLVQAGGSLRLSCAASGSTFVRNAMGWYRQAPGKERELVARISSSGGRTSYADSVKGRFTISRDNAKNTVYLQMNSLKPEDTAVYYCNARHYYIWWRSPTRTAMNYWGQGTQVTVSS”, the “polyreactivity (PSR sort gate)” value is given as “high polyreactivity”.

In the case of “QVQLVESGGGLVQAGGSLRLSCAASGSTFVRNDMGWYRQAPGKERELVAAINGDGRTYYADSVKGRFTISRDNAKNTVYLQMNSLKPEDTAVYYCAADWKSSRSYSYEMDYWGQGTQVTVSS”, the “polyreactivity (PSR sort gate)” value was “low polyreactivity”.

Turning to “QVQLVESGGGLVQAGGSLRLSCAASGSTFVRNVMGWYRQAPGKEREFVAAITRSGGSTYYADSVKGRFTISRDNAKNTVYLQMNSLKPEDTAVYYCIVPPGYRLSQYEYDYWGQGTQVTVSS”, the “polyreactivity (PSR sort gate)” value is on record as “low polyreactivity”.

As to “QVQLVESGGGLVQAGGSLRLSCAASGSTFVRYAMGWYRQAPGKERELVAAIRWSSGSTYYADSVKGRFTISRDNAKNTVYLQMNSLKPEDTAVYYCAKRQYLYTSKYDYWGQGTQVTVSS”, the “polyreactivity (PSR sort gate)” value was “high polyreactivity”.

The values above are taken from the nanobody polyreactivity screen of Harvey et al. (2022).
